Results on 6 molecules are retold here after patent publication US20210139548A1 (published 2021).

*1 amine or outer side, *2 acyl side, *3 side chain or, on linkers, in order; H or OH if unused. Side-chain parts run from the residue outwards. The star is where a group is joined. C18 diacid = O=C(O)CCCCCCCCCCCCCCCCC(=O)*; γGlu = O=C(O)[C@H](CCC(=O)[*:2])N[*:1]; Isovaleryl = CC(C)CC(=O)*; AEEA = NCCOCCOCC(=O)O

T1: human neuropeptide Y2 receptor (human, UniProt P49146 1-381)
T1 construct: whole, on cells; also called hNPY2 receptor; hNPY2-R
T1 sequence (looked up): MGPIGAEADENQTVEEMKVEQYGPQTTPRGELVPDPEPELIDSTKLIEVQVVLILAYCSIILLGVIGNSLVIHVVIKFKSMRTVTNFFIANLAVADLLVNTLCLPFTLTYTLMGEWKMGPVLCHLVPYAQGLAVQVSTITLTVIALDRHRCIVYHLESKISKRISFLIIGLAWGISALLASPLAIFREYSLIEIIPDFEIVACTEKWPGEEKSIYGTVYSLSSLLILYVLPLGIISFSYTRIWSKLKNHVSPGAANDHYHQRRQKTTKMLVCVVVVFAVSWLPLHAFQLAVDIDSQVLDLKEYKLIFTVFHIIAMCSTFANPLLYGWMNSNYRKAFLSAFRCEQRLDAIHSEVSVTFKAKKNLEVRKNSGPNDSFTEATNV

B1: Compound 1 (peptide)
peptide: Isovaleryl-APEK([AEEA-AEEA-γGlu-C18 diacid])PEEDAQPEELQEYYVSLRHYYNWLTRQRY-NH2
SMILES: CC(C)CC(=O)N[C@@H](C)C(=O)N1CCC[C@H]1C(=O)N[C@@H](CCC(=O)O)C(=O)N[C@@H](CCCCNC(=O)COCCOCCNC(=O)COCCOCCNC(=O)CC[C@H](NC(=O)CCCCCCCCCCCCCCCCC(=O)O)C(=O)O)C(=O)N1CCC[C@H]1C(=O)N[C@@H](CCC(=O)O)C(=O)N[C@@H](CCC(=O)O)C(=O)N[C@@H](CC(=O)O)C(=O)N[C@@H](C)C(=O)N[C@@H](CCC(N)=O)C(=O)N1CCC[C@H]1C(=O)N[C@@H](CCC(=O)O)C(=O)N[C@@H](CCC(=O)O)C(=O)N[C@@H](CC(C)C)C(=O)N[C@@H](CCC(N)=O)C(=O)N[C@@H](CCC(=O)O)C(=O)N[C@@H](Cc1ccc(O)cc1)C(=O)N[C@@H](Cc1ccc(O)cc1)C(=O)N[C@H](C(=O)N[C@@H](CO)C(=O)N[C@@H](CC(C)C)C(=O)N[C@@H](CCCNC(=N)N)C(=O)N[C@@H](Cc1c[nH]cn1)C(=O)N[C@@H](Cc1ccc(O)cc1)C(=O)N[C@@H](Cc1ccc(O)cc1)C(=O)N[C@@H](CC(N)=O)C(=O)N[C@@H](Cc1c[nH]c2ccccc12)C(=O)N[C@@H](CC(C)C)C(=O)N[C@H](C(=O)N[C@@H](CCCNC(=N)N)C(=O)N[C@@H](CCC(N)=O)C(=O)N[C@@H](CCCNC(=N)N)C(=O)N[C@@H](Cc1ccc(O)cc1)C(N)=O)[C@@H](C)O)C(C)C
B2: Compound 4 (peptide)
peptide: Isovaleryl-APEK([AEEA-AEEA-γGlu-C18 diacid])PEEDASPEELQRYYVSLRHYYNWLQRQRY-NH2
SMILES: CC(C)CC(=O)N[C@@H](C)C(=O)N1CCC[C@H]1C(=O)N[C@@H](CCC(=O)O)C(=O)N[C@@H](CCCCNC(=O)COCCOCCNC(=O)COCCOCCNC(=O)CC[C@H](NC(=O)CCCCCCCCCCCCCCCCC(=O)O)C(=O)O)C(=O)N1CCC[C@H]1C(=O)N[C@@H](CCC(=O)O)C(=O)N[C@@H](CCC(=O)O)C(=O)N[C@@H](CC(=O)O)C(=O)N[C@@H](C)C(=O)N[C@@H](CO)C(=O)N1CCC[C@H]1C(=O)N[C@@H](CCC(=O)O)C(=O)N[C@@H](CCC(=O)O)C(=O)N[C@@H](CC(C)C)C(=O)N[C@@H](CCC(N)=O)C(=O)N[C@@H](CCCNC(=N)N)C(=O)N[C@@H](Cc1ccc(O)cc1)C(=O)N[C@@H](Cc1ccc(O)cc1)C(=O)N[C@H](C(=O)N[C@@H](CO)C(=O)N[C@@H](CC(C)C)C(=O)N[C@@H](CCCNC(=N)N)C(=O)N[C@@H](Cc1c[nH]cn1)C(=O)N[C@@H](Cc1ccc(O)cc1)C(=O)N[C@@H](Cc1ccc(O)cc1)C(=O)N[C@@H](CC(N)=O)C(=O)N[C@@H](Cc1c[nH]c2ccccc12)C(=O)N[C@@H](CC(C)C)C(=O)N[C@@H](CCC(N)=O)C(=O)N[C@@H](CCCNC(=N)N)C(=O)N[C@@H](CCC(N)=O)C(=O)N[C@@H](CCCNC(=N)N)C(=O)N[C@@H](Cc1ccc(O)cc1)C(N)=O)C(C)C
B3: Compound 3 (peptide)
peptide: Isovaleryl-APEK([AEEA-AEEA-γGlu-C18 diacid])PEEEASPAELQRYYVSLRHYYNWLTRQRY-NH2
SMILES: CC(C)CC(=O)N[C@@H](C)C(=O)N1CCC[C@H]1C(=O)N[C@@H](CCC(=O)O)C(=O)N[C@@H](CCCCNC(=O)COCCOCCNC(=O)COCCOCCNC(=O)CC[C@H](NC(=O)CCCCCCCCCCCCCCCCC(=O)O)C(=O)O)C(=O)N1CCC[C@H]1C(=O)N[C@@H](CCC(=O)O)C(=O)N[C@@H](CCC(=O)O)C(=O)N[C@@H](CCC(=O)O)C(=O)N[C@@H](C)C(=O)N[C@@H](CO)C(=O)N1CCC[C@H]1C(=O)N[C@@H](C)C(=O)N[C@@H](CCC(=O)O)C(=O)N[C@@H](CC(C)C)C(=O)N[C@@H](CCC(N)=O)C(=O)N[C@@H](CCCNC(=N)N)C(=O)N[C@@H](Cc1ccc(O)cc1)C(=O)N[C@@H](Cc1ccc(O)cc1)C(=O)N[C@H](C(=O)N[C@@H](CO)C(=O)N[C@@H](CC(C)C)C(=O)N[C@@H](CCCNC(=N)N)C(=O)N[C@@H](Cc1c[nH]cn1)C(=O)N[C@@H](Cc1ccc(O)cc1)C(=O)N[C@@H](Cc1ccc(O)cc1)C(=O)N[C@@H](CC(N)=O)C(=O)N[C@@H](Cc1c[nH]c2ccccc12)C(=O)N[C@@H](CC(C)C)C(=O)N[C@H](C(=O)N[C@@H](CCCNC(=N)N)C(=O)N[C@@H](CCC(N)=O)C(=O)N[C@@H](CCCNC(=N)N)C(=O)N[C@@H](Cc1ccc(O)cc1)C(N)=O)[C@@H](C)O)C(C)C
B4: Compound 6 (peptide)
peptide: Isovaleryl-APEK([AEEA-AEEA-γGlu-C18 diacid])PEEEASPEELQRYYVSARHYYNWLTRQRY-NH2
SMILES: CC(C)CC(=O)N[C@@H](C)C(=O)N1CCC[C@H]1C(=O)N[C@@H](CCC(=O)O)C(=O)N[C@@H](CCCCNC(=O)COCCOCCNC(=O)COCCOCCNC(=O)CC[C@H](NC(=O)CCCCCCCCCCCCCCCCC(=O)O)C(=O)O)C(=O)N1CCC[C@H]1C(=O)N[C@@H](CCC(=O)O)C(=O)N[C@@H](CCC(=O)O)C(=O)N[C@@H](CCC(=O)O)C(=O)N[C@@H](C)C(=O)N[C@@H](CO)C(=O)N1CCC[C@H]1C(=O)N[C@@H](CCC(=O)O)C(=O)N[C@@H](CCC(=O)O)C(=O)N[C@@H](CC(C)C)C(=O)N[C@@H](CCC(N)=O)C(=O)N[C@@H](CCCNC(=N)N)C(=O)N[C@@H](Cc1ccc(O)cc1)C(=O)N[C@@H](Cc1ccc(O)cc1)C(=O)N[C@H](C(=O)N[C@@H](CO)C(=O)N[C@@H](C)C(=O)N[C@@H](CCCNC(=N)N)C(=O)N[C@@H](Cc1c[nH]cn1)C(=O)N[C@@H](Cc1ccc(O)cc1)C(=O)N[C@@H](Cc1ccc(O)cc1)C(=O)N[C@@H](CC(N)=O)C(=O)N[C@@H](Cc1c[nH]c2ccccc12)C(=O)N[C@@H](CC(C)C)C(=O)N[C@H](C(=O)N[C@@H](CCCNC(=N)N)C(=O)N[C@@H](CCC(N)=O)C(=O)N[C@@H](CCCNC(=N)N)C(=O)N[C@@H](Cc1ccc(O)cc1)C(N)=O)[C@@H](C)O)C(C)C
B5: Compound 5 (peptide)
peptide: Isovaleryl-APEK([AEEA-AEEA-γGlu-C18 diacid])PEEEVSPEELQRYYVSLRHYYNWLTRQRY-NH2
SMILES: CC(C)CC(=O)N[C@@H](C)C(=O)N1CCC[C@H]1C(=O)N[C@@H](CCC(=O)O)C(=O)N[C@@H](CCCCNC(=O)COCCOCCNC(=O)COCCOCCNC(=O)CC[C@H](NC(=O)CCCCCCCCCCCCCCCCC(=O)O)C(=O)O)C(=O)N1CCC[C@H]1C(=O)N[C@@H](CCC(=O)O)C(=O)N[C@@H](CCC(=O)O)C(=O)N[C@@H](CCC(=O)O)C(=O)N[C@H](C(=O)N[C@@H](CO)C(=O)N1CCC[C@H]1C(=O)N[C@@H](CCC(=O)O)C(=O)N[C@@H](CCC(=O)O)C(=O)N[C@@H](CC(C)C)C(=O)N[C@@H](CCC(N)=O)C(=O)N[C@@H](CCCNC(=N)N)C(=O)N[C@@H](Cc1ccc(O)cc1)C(=O)N[C@@H](Cc1ccc(O)cc1)C(=O)N[C@H](C(=O)N[C@@H](CO)C(=O)N[C@@H](CC(C)C)C(=O)N[C@@H](CCCNC(=N)N)C(=O)N[C@@H](Cc1c[nH]cn1)C(=O)N[C@@H](Cc1ccc(O)cc1)C(=O)N[C@@H](Cc1ccc(O)cc1)C(=O)N[C@@H](CC(N)=O)C(=O)N[C@@H](Cc1c[nH]c2ccccc12)C(=O)N[C@@H](CC(C)C)C(=O)N[C@H](C(=O)N[C@@H](CCCNC(=N)N)C(=O)N[C@@H](CCC(N)=O)C(=O)N[C@@H](CCCNC(=N)N)C(=O)N[C@@H](Cc1ccc(O)cc1)C(N)=O)[C@@H](C)O)C(C)C)C(C)C
B6: Compound 7 (peptide)
peptide: Isovaleryl-APEK([AEEA-AEEA-γGlu-C18 diacid])PEEDASPEELQAYYVSLRHYYNWLTRQRY-NH2
SMILES: CC(C)CC(=O)N[C@@H](C)C(=O)N1CCC[C@H]1C(=O)N[C@@H](CCC(=O)O)C(=O)N[C@@H](CCCCNC(=O)COCCOCCNC(=O)COCCOCCNC(=O)CC[C@H](NC(=O)CCCCCCCCCCCCCCCCC(=O)O)C(=O)O)C(=O)N1CCC[C@H]1C(=O)N[C@@H](CCC(=O)O)C(=O)N[C@@H](CCC(=O)O)C(=O)N[C@@H](CC(=O)O)C(=O)N[C@@H](C)C(=O)N[C@@H](CO)C(=O)N1CCC[C@H]1C(=O)N[C@@H](CCC(=O)O)C(=O)N[C@@H](CCC(=O)O)C(=O)N[C@@H](CC(C)C)C(=O)N[C@@H](CCC(N)=O)C(=O)N[C@@H](C)C(=O)N[C@@H](Cc1ccc(O)cc1)C(=O)N[C@@H](Cc1ccc(O)cc1)C(=O)N[C@H](C(=O)N[C@@H](CO)C(=O)N[C@@H](CC(C)C)C(=O)N[C@@H](CCCNC(=N)N)C(=O)N[C@@H](Cc1c[nH]cn1)C(=O)N[C@@H](Cc1ccc(O)cc1)C(=O)N[C@@H](Cc1ccc(O)cc1)C(=O)N[C@@H](CC(N)=O)C(=O)N[C@@H](Cc1c[nH]c2ccccc12)C(=O)N[C@@H](CC(C)C)C(=O)N[C@H](C(=O)N[C@@H](CCCNC(=N)N)C(=O)N[C@@H](CCC(N)=O)C(=O)N[C@@H](CCCNC(=N)N)C(=O)N[C@@H](Cc1ccc(O)cc1)C(N)=O)[C@@H](C)O)C(C)C

In this test the target is T1, human neuropeptide Y2 receptor. Put plainly: radioligand competition (125I-PYY(1-36)), hNPY2R membranes. Here is the method:
The filtration RLB assay was carried out in 96-well plates in a final volume of 100 μl per well. Freeze-dried test peptides were dissolved in 100% dimethyl sulfoxide (DMSO) to stock solutions of 1 mM and serial dilutions were performed in assay buffer (50 mM HEPES, 5 mM MgCl₂, 1 mM CaCl₂, pH 7.4) containing 0.2% ovalbumin. […] Next, 80 μL membranes (HTS066M, ChemiSCREEN™ Human Neuropeptide Y2 Receptor Membrane Preparation, CHEMICON) were added to each well to give a final protein concentration of 0.5 μg/well. The plates were sealed and incubated at room temperature for 2 hours in a plate shaker set at 400 rpm. The incubation was stopped by vacuum filtration onto 0.5% poly-ethylene amine (PEI) presoaked GF/C filters using a 96-well FilterMate™ harvester (Perkin Elmer) followed by four washes with 300 μl/well ice-cold wash buffer (50 mM HEPES, 500 mM NaCl, pH7.4). Filter plates were then dried for 60 min at room temperature and the bottom of the plates was sealed with backing tape UniFilter-96. Finally, 50 μl/well scintillation counter cocktail (Microscint20, Packard) was added and the radioactivity was counted in the Packard TopCount NXT scintillation counter. IC₅₀ values (the half maximal inhibitory concentration of the agonist) were calculated by nonlinear regression analysis of sigmoidal dose-response curves.
(In general: Displacement assays read how much labelled ligand stays bound in the presence of the test substance.)
By Ki is commonly meant a measure of affinity in units of concentration, obtained from inhibition or displacement. For the molecule B1, the Ki stood at 2.5 nM.

Consider B2, for which the affinity, expressed as Ki, was 1.43 nM.

Regarding B3, the Ki amounted to 3.14 nM.

With B4, the Ki came to 6.52 nM. B5 returned a Ki of 14.8 nM. In the case of B6, the Ki was 1.02 nM.
